In test [1] the target is T1, IL-33 mutant protein S63A (human, UniProt O95760 112-270).
T1 construct: Prokaryotic expression
T1 chain: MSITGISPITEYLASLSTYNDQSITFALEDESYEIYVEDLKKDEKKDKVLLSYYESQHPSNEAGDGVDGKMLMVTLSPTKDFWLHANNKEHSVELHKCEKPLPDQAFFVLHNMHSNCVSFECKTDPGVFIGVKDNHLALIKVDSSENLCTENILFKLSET
The test can be described thus: ELISA as Example 9; row S63A. The procedure: (§1) SA protein was diluted to 2 μg/mL to coat ELISA plate at 100 μL/well overnight at 4° C. The plate was washed with PBST (PBS containing 0.05% Tween20) for 3 times, and blocked with 2% BSA prepared in PBS at 200 μL/well, at room temperature for 2 h. After the plate was washed twice with PBST, IL-33-his-biotin protein was diluted to 1 μg/mL with 1% BSA prepared in PBST, and was added to ELISA plate at 100 μL/well. The plate was incubated at room temperature for 1 h, and each monoclonal antibody was diluted with 1% BSA prepared in PBST in a 3-fold gradient. The highest concentration of antibody was 10 μg/mL, and the antibody was diluted for 12 gradients. Each diluted monoclonal antibody was added to ELISA wells with 100 μL/well, and the plate was incubated at room temperature for 1 h. Each sample was added to duplicate wells in parallel. The plate was washed with PBST for 3 times, and HRP-anti human IgG Fc secondary antibody prepared with PBST was diluted at an appropriate ratio, and was added to ELISA wells at 100 μL/well. […] Each reaction solution was shaken uniformly and OD450 nm was read on a microplate reader. The data was analyzed and EC₅₀ was calculated.
(§2) Subsequently, according to the experimental method of Example 9, the affinity of the above mutant proteins to 874F7-Hu1 was determined, and IL-33 proteins (WT-1, WT-2, WT-3, and WT-4) without any mutation were set as controls.
In general terms: ELISA stands for enzyme-linked immunosorbent assay.

The target of test [2] is T2, IL-33 mutant protein S52A (human, UniProt O95760 112-270).
T2 construct: Prokaryotic expression
T2 chain: T1 chain with S52A, A63S
The test can be described thus: ELISA as Example 9; row S52A against WT-2. The method, then: as §1, §2

The next test concerns the target T3, Pep1 (human, N-terminal biotin).
T3 construct: Synthetic 20-mer of human IL-33
T3 peptide: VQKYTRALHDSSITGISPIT
As to the kind of experiment: ELISA, biotinylated peptide on streptavidin plate. The method, then: (§3) To determine the binding activity of antibody to each polypeptide fragment, the ELISA plate was pre-coated by biotin-avidin (SA) which was diluted in coating solution (50 mM carbonate coating buffer, pH 9.6) to 2 μg/ml at 4° C. overnight. The plate was washed with PBST for 3 times, and then blocked with 2% BSA prepared in PBS at room temperature for 2 h with 200 μL/well. The plate was washed once with PBST, and 864F3 and 874F7 with final concentrations of 10 μg/mL were added at 100 μL/well, respectively, and the plate was incubated at room temperature for 1 h. The plate was washed with PBST for 3 times, and the goat anti-mouse IgG labeled by HRP was added and placed at 37° C. for 30 min. After washing the plate with PBST for 3 times, the plate was patted on the absorbent paper to remove residual droplets as far as possible. 100 μl TMB developing solution was added to each well, and the plate was placed at room temperature (20±5° C.) for 5 minutes away from light; 50 μl 2M H₂SO₄ terminating solution was added to each well to terminate the substrate reaction. OD values were read at 450 nm on the microplate reader to analyze the binding ability of the antibody to each polypeptide fragment. The experimental results are shown in […]

The target of another test is T4, Pep9 (human, N-terminal biotin).
T4 construct: Synthetic 20-mer of human IL-33
T4 peptide: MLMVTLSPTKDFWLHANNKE
The test can be described thus: ELISA, biotinylated peptide on streptavidin plate. The method, then:
as §3

Another test has as its target T5, Pep15 (human, N-terminal biotin).
T5 construct: Synthetic 20-mer of human IL-33
T5 peptide: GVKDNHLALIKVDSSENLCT
As to the kind of experiment: ELISA, biotinylated peptide on streptavidin plate. The procedure: as §3

In the next test the target is T6, Pep2 (human, N-terminal biotin).
T6 construct: Synthetic 20-mer of human IL-33
T6 peptide: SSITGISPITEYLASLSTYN
The test can be described thus: ELISA, biotinylated peptide on streptavidin plate. The method, then: as §3

The target in another test is T7, Pep3 (human, N-terminal biotin).
T7 construct: Synthetic 20-mer of human IL-33
T7 peptide: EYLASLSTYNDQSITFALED
As to the kind of experiment: ELISA, biotinylated peptide on streptavidin plate. The procedure: as §3

For the next test, the target named is T8, Pep12 (human, N-terminal biotin).
T8 construct: Synthetic 20-mer of human IL-33
T8 peptide: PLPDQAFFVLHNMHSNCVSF
As to the kind of experiment: ELISA, biotinylated peptide on streptavidin plate. The procedure: as §3

The next test deals with T9, Pep4 (human, N-terminal biotin).
T9 construct: Synthetic 20-mer of human IL-33
T9 peptide: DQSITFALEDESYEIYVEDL
The test can be described thus: ELISA, biotinylated peptide on streptavidin plate. The procedure: as §3

The target of the next test is T10, Pep7 (human, N-terminal biotin).
T10 construct: Synthetic 20-mer of human IL-33
T10 peptide: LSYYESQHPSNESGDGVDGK
As to the kind of experiment: ELISA, biotinylated peptide on streptavidin plate. The method, then:
as §3

For the next test, the target named is T11, Pep5 (human, N-terminal biotin).
T11 construct: Synthetic 20-mer of human IL-33
T11 peptide: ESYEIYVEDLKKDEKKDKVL
As to the kind of experiment: ELISA, biotinylated peptide on streptavidin plate. The method, then:
as §3

The target of the next test is T12, Pep13 (human, N-terminal biotin).
T12 construct: Synthetic 20-mer of human IL-33
T12 peptide: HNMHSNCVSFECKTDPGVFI
The test can be described thus: ELISA, biotinylated peptide on streptavidin plate. The procedure:
as §3

The target of another test is T13, Pep14 (human, N-terminal biotin).
T13 construct: Synthetic 20-mer of human IL-33
T13 peptide: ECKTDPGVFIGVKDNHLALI
The test can be described thus: ELISA, biotinylated peptide on streptavidin plate. The procedure:
as §3

The target in the next test is T14, Pep11 (human, N-terminal biotin).
T14 construct: Synthetic 20-mer of human IL-33
T14 peptide: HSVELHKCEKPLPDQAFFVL
As to the kind of experiment: ELISA, biotinylated peptide on streptavidin plate. The method, then: as §3

The target in the next test is T15, Pep16 (human, N-terminal biotin).
T15 construct: Synthetic 20-mer of human IL-33
T15 peptide: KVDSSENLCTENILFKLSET
As to the kind of experiment: ELISA, biotinylated peptide on streptavidin plate. The procedure: as §3

The next test concerns the target T16, Pep8 (human, N-terminal biotin).
T16 construct: Synthetic 20-mer of human IL-33
T16 peptide: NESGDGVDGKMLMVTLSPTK
The test can be described thus: ELISA, biotinylated peptide on streptavidin plate. The method, then: as §3

In another test the target is T17, Pep10 (human, N-terminal biotin).
T17 construct: Synthetic 20-mer of human IL-33
T17 peptide: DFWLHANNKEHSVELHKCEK
The test can be described thus: ELISA, biotinylated peptide on streptavidin plate. The method, then: as §3

Where a chain is given by its changes, count along the chain named.

B1: 874F7-Hu1 (antibody, human IgG4 S228P, kappa)
heavy: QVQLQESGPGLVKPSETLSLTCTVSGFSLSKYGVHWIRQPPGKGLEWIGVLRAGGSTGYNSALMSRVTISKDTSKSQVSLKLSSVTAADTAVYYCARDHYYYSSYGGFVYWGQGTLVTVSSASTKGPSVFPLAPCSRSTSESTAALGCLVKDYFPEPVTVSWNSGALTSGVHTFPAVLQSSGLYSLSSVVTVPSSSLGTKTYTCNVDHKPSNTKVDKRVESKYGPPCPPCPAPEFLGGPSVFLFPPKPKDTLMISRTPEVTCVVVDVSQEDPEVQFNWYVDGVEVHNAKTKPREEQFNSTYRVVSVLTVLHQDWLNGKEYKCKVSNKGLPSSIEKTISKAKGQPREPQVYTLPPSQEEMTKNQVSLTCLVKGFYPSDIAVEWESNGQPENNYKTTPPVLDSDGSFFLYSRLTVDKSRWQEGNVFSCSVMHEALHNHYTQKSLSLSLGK
light: DIQMTQSPSSVSASVGDRVTITCLASQTIGAWLAWYQQKPGKSPKLLIYAATRLADGVPSRFSGSGSGTDFTLTISSLQPEDFATYYCQQLDSSPYTFGQGTKVEIKRTVAAPSVFIFPPSDEQLKSGTASVVCLLNNFYPREAKVQWKVDNALQSGNSQESVTEQDSKDSTYSLSSTLTLSKADYEKHKVYACEVTHQGLSSPVTKSFNRGEC
notes: also called 874F7-Hul; humanized antibody 874F7-Hu1
By EC50 is commonly meant the concentration at which the effect is half-maximal. A low value points to a more potent agent. With B1, the EC50 in [1] is 0.16 nM. For the same molecule, in [2], the Affinity decline ratio stood at 14.6 fold.

B2: 874F7 (antibody, V domains shown)
VH: QVQLKESGPGLVAPSHSLSITCNVSGFSLSKYGVHWIRQIPGRGLDWLGVLRAGGSTGYNSALMSRLSISKDSSKSQVFLKMNDLRTDDTAVYFCVRDHYYYSSYGGFVYWGQGTLVTVSA
VL: DIQMTQSPASQSASLGESVTITCLASQTIGAWLAWYRQQPGKSPQLLIYAATRLADGVPSRFSGSGSGTEFSFKINNLQAEDFVSYYCQQLDSSPYTFGGGTRLEM
notes: Murine hybridoma antibody purified on Protein G; also called murine antibody 874F7
For the molecule B2, the binding result with Pep1, with Pep9, in the test with Pep15, with Pep2, with Pep3 and with Pep12 was “no binding (tested: 10 µg/mL)” throughout. The binding result with Pep4, with Pep7, in the test with Pep5, with Pep13, with Pep14 and with Pep11 was “no binding (tested: 10 µg/mL)” throughout. Besides, the binding result with Pep16, in the test with Pep8 and in the test with Pep10 was “no binding (tested: 10 µg/mL)” in each case.

Values taken from patent publication US20230399394A1 (SUNSHINE GUOJIAN PHARMACEUTICAL SHANGHAI, published 2023).
